Reference: patent US20120122115A1, “Bacterial quorum sensing biosensor” (priority 2006, published 2012)

Assay: FRET response of LuxP BAI-2 binding site mutant biosensors to BAI-2
Experimental: Site-directed mutations were carried out using the QuikChange mutagenesis kit (Stratagene). The perGFP plasmid containing the gene encoding the green fluorescent protein (GFP) is used for creating cyan and yellow variants CFP and YFP, respectively. An L221K mutation is introduced into the gene encoding CFP or YFP to reduce the possible level of intermolecular dimerization. Cloning vector pSP72 (Promega) is used for creating 5′ to 3′ end-to-end gene fusions of PCR fragments containing the genes encoding CFP (5′ KpnI/3′ EagI), V. harveyi LuxP (70 to 1095 bp; 5′ EagI/3′ NotI), and YFP (5′ NotI/3′ PstI), generating plasmid pSP72-CLPY. The CLPY gene fusion is removed using the restriction enzymes KpnI and PstI and subcloned into a pQE-30 bacterial expression vector (Qiagen) containing an N-terminal six-His tag, generating plasmid pQE30-CLPY. LuxP BAI-2 binding site mutants pQE30-M2CLPY (Q77A and S79A) and pQE30-M3CLPY (Q77A, S79A, and W82F) are created using pQE30-CLPY as a template and confirmed by DNA sequence analysis.
The YFP or CFP fluorescence response of wild-type and mutant forms of CLPY (1.0 mL, 0.015 mg/mL) to different ligands is measured 5 minutes after addition of the ligand to the protein at room temperature. No time-dependent changes in the CLPY FRET ratio are observed after incubation for 5 minutes. […]

B1: M3CLPY: CLPY with LuxP BAI-2 binding site mutations Q77A, S79A, and W82F (protein)
chain: MRGSHHHHHHGSACELGTMKGEELFTGVVPILVELDGDVNGHKFSVSGEGEGDATYGKLTLKFICTTGKLPVPWPTLVTTLTWGVQCFSRYPDHMKQHDFFKSAMPEGYVQQRTIFFKDDGNYKTRAEVKFEGDTLVNRIELKGIDFKEDGNILGHKLEYNYISHNVYITADKQKNGIKANFKIRHNIEDGSVQLADHYQQNTPIGDGPVLLPDNHYLSIQSALSKDPNEKRDHMVLKEFVTAAGITHGMDELYTADGVLNGYWGYQEFLDEFPEQRNLTNALSEAVRAQPVPLSKPTQRPIKISVVYPGQAVADYFVRNIASFEKRLYKLNINYQLNQVFTRPNADIKQQSLSLMEALKSKSDYLIFTLDTTRHRKFVEHVLDSTNTKLILQNITTPVREWDKHQPFLYVGFDHAEGSRELATEFGKFFPKHTYYSVLYFSEGYISDVRGDTFIHQVNRDNNFELQSAYYTKATKQSGYDAAKASLAKHPDVDFIYACSTDVALGAVDALAELGREDIMINGWGGGSAELDAIQKGALDITVMRMNDDTGIAMAEAIKWDLEDKPVPTVYSGDFEIVTKADSPERIEALKKRAFRYSDNGGAAAKGEELFTGVVPILVELDGDVNGHKFSVSGEGEGDATYGKLTLYFICTTGKLPVPWPTLVTTLGYGLKCFARYPDHMKQHDFFKSAMPEGYVQERTIFFKDDGNYKTRAEVKFEGDTLVNRIELKGIDFKEDGNILGHKLEYNYNSHNVYIMADKQKNGIKVNFKIRHNIEDGSVQLADHYQQNTPIGDGPVLLPDNHYLSYQSALSKDPNEKRDHMVLKEFVTAAGITHGMDELYK
Following addition of BAI-2, compared to wild-type CLPY
  FRET response to BAI-2 (qualitative): insensitive to BAI-2
Supersaturating BAI-2 (10 μM)
  FRET response relative to the wild-type biosensor: 18%
